Biological target: T1, Escherichia coli β-galactosidase (E. coli, UniProt P00722 = β-galactosidase)
T1 construct: β-galactosidase of E. coli, encoded by lacZ; Wild-type commercial enzyme; source: bought: Sigma catalog no; G3153
Assay: cryo-EM structure; β-gal mixed with scFv13R4 in a 1:10 stoichiometric ratio (2.5-fold excess), 1 hr on ice; single-particle cryo-EM, map at ~13 Å; rigid-body docking of β-gal (1F4A) and of the HyHEL-10 Fv (3A6B)
Conditions: both partners purified

T1 sequence (P00722 whole entry): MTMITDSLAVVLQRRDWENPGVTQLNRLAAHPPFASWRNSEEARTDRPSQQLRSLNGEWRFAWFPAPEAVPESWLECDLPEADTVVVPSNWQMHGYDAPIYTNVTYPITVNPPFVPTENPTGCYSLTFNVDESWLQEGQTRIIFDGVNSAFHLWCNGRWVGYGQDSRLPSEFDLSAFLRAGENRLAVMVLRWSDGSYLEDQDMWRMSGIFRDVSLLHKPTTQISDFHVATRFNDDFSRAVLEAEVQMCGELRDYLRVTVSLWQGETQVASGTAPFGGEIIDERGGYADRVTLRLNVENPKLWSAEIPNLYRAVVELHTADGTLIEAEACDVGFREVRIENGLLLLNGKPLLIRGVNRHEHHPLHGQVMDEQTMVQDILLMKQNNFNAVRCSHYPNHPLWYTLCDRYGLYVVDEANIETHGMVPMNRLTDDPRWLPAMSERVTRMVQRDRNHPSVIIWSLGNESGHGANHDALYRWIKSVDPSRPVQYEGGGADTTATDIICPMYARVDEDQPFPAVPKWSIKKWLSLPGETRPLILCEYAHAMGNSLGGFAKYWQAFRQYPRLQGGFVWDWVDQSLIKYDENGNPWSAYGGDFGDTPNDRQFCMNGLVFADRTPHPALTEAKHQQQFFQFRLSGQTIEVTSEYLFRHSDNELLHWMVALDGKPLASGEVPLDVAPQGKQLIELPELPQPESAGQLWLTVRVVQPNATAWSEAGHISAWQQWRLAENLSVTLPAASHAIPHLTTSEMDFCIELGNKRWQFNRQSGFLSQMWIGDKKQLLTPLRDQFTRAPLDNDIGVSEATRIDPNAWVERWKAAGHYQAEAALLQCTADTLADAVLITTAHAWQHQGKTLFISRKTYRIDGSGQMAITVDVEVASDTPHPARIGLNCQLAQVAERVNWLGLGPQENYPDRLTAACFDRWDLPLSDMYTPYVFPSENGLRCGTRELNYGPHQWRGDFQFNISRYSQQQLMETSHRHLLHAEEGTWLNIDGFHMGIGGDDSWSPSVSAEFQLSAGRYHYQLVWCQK

B1: scFv13R4 (scFv, V domains shown)
VH: EVQLVESGGSLVKPGGSLRLSCAASGFTFSNYSMNWVRQAPGKGLEWISSISGSSRYIYYADFVKGRFTISRDNATNSLYLQMNSLRAEDTAVYYCVRSSITIFGGGMDVWGRGTLVTVSS
VL: QSVLTQPASVSGSPGQSITISCAGTSSDVGGYNYVSWYQQHPGKAPKLMIYEDSKRPSGVSNRFSGSKSGNTASLTISGLQAEDEADYYCSSYTTRSTRVFGGGTKLAVL
notes: model of the complex deposited as PDB 4CKD, built by docking the HyHEL-10 Fv of PDB 3A6B; 28 kDa single-chain Fv selected for cytoplasmic expression (Martineau et al., 1998); The preparation held GroEL as an impurity; also called Fv antibody; source: E. coli strain PM12 (BL21 (DE3) pLysS with a lacZ:Tn5 mutation), pET 16b, purified (nickel-nitrilotriacetic acid column)
  stoichiometry N: 1 Fv per β-gal subunit
